# Test results reported in the nanobody polyreactivity screen of Harvey et al. (2022).
# Experiment: yeast display, Sf9 membrane polyspecificity reagent, FACS + sequencing; frameworks hold sequencing errors
# Procedure, shortened: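 Synthetic nanobody libraries on Saccharomyces cerevisiae BJ5465 were galactose-induced for 36–48 hours, stained 1 hour at 4 °C with 10% biotinylated, detergent-solubilized Sf9 membrane reagent and enriched on streptavidin microbeads. FACS then separated cells into low and high (top ~1%) gates by anti-HA (expression) and streptavidin (reagent binding) fluorescence. Genes were colony-PCR amplified, MiSeq 2 × 250 sequenced and CDR-length filtered. A clone's polyreactivity label is that of its gate of origin.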
row,Sequence,polyreactivity (PSR sort gate)
1,QVQLVESGGGLVQAGGSLRLSCAPSGRIFYSYAMGWYRQAPGKVRELVAAIRSRGGSTRYADSVKGRFTISRDNAKNNVYLQMNSLKPEDTAVYYCAATGYQSRGSSDYWGQGTQVSVSS,high polyreactivity
2,QVQLVESGGGLVQAGGSLRLSCAPSGRIFYYYAKGWYRQAPGKERELVAAINSGGSTNYADSVKGRFTISRDNAKNTVYLQMNSLKPEDTAVYYCAADAKLVSEFDYWGQGTQVTVSS,low polyreactivity
3,QVQLVESGGGLVQAGGSLRLSCAPSGRIVYYYAMGWYRHAPGKERELVASITFSGGRTFYADSVKGRFTITRDYAKNTVYLQMNSVTPEDTAVYYGAAVRCGRRSGGLVAEYDYWGQGTQVSVSS,high polyreactivity
4,QVQLVESGGGLVQAGGSLRLSCAPSGRMFVFYTMGWYRPAPGKESELVAYINSGGSTYYADSVKGRFTISRDNAKNSVYLQMNSLKPEDTAVYYCAAGPCRGPDSRWRYKYDYWGQGTQVTVSS,high polyreactivity
5,QVQLVESGGGLVQAGGSLRLSCAPSGRTFIFYAMGWYRQAPGKERELVAAISSSGSGTYYADSLKGRFTISRDNAKNTVYLQMNSLKPEDTAVYSCAAAVVNSRRRPKYGYWGQGTQVTVSS,low polyreactivity
6,QVQLVESGGGLVQAGGSLRLSCAPSGRTFNYNAMGWYRQAPGKERELVAAITSSGGGTSYADSVKGRFTISRDNAKNTVYFQMNSLKPYYTAVYYCAAEVDRGKYCSTYRGGDYCGQGTQVTVSS,high polyreactivity
7,QVQLVESGGGLVQAGGSLRLSCAPSGRTFRYYAMGWYRQAPGKERELVATISKSGGSTYYADSVKGRFTISRDNAKNTVYLQMNSLKPEDTAVYYCAAPIYNGYASWQVYYWGQGTQVTVSS,high polyreactivity
8,QVQLVESGGGLVQAGGSLRLSCAPSGRTFTAYAMGWYRQAPGKERELVAAITSGGSTYYADSVKGRFTISRDNAKNTVYLKRKSLKPEDTAVYYCATDLYSFYWPEYEYWGQGTQVTLSS,low polyreactivity
9,QVQLVESGGGLVQAGGSLRLSCAPSGRTFWSYAMGWYRQAPGKERELVAAISLDDGTTYYADSVKGRFTISRDNAKNTVYLQMNSLKPEDTAVYDCAAEREQGDDGYGPDYGYWGQGTQVTVSS,high polyreactivity
10,QVQLVESGGGLVQAGGSLRLSCAPSGSIFEINAMGWYRQAPGKERELVAAITGSGGSTHYADSVKGRFTISRDNAKKTVYLEMNSLKPEDTAVYYCAAVQRYQYGYWGQGTQVTVSS,low polyreactivity
11,QVQLVESGGGLVQAGGSLRLSCAPSGSIFVVNAMGWFRQAPGKEREFVAAITFGGGTTYYADSVKGRITISRDNAKNTVYLQMYSLKPEDTEVYYCNTRTRGYSSYVGGYNYWGQGTQVTVSS,low polyreactivity
12,QVQLVESGGGLVQAGGSLRLSCAPSGSIFWYYCKGWYRQAPGKERELVAAISSGGSTNYADSVKGRFAISRDNAKNTVYLQMNSLKAEDTAVYYCAVRFTFPRYDYWGQGTQVTVSS,high polyreactivity
13,QVQLVESGGGLVQAGGSLRLSCAPSGSILWQYAMGWYRQAPGKERELVAAITYSGGSTHYADSVKGRFTISRDNAKNTVYLQMNSLKPEETAVYYCAAGYWYRYAALRYDHWGQGTQVTVSS,low polyreactivity
14,QVQLVESGGGLVQAGGSLRLSCAPSGSTFDPFAMGWYRQAPGKERELVADITSSDGSTYYADSVKGRFTISRDNAKNTVYFQMNSLKPEVTAVYYCYSDYRYFWTYWGWSIYDYWGQGTQVTVSS,high polyreactivity
15,QVQLVESGGGLVQAGGSLRLSCAPSGSTFFTYAMGWYRQAPGKERELVASISIGGSTNYADSVKGRFTISRDNAKNTVYLQMNSLIQEDSAVYYCAIRYFTFGVDYEYWGQGTQVTVSS,low polyreactivity
16,QVQLVESGGGLVQAGGSLRLSCAPSGSTFRGNAMGWYRQAPGKERELVAAITRRGGSTYYADSVKGRFTISRDNAKNTVYLQMNSLKPEDTAVYYCAKVGRETEYAYWGQGTQVTVSS,high polyreactivity
17,QVQLVESGGGLVQAGGSLRLSCAPSGSTFRRNAMGWSRQAPGKERELVAANSGSGGRTYYADSVKGRITISRDNAKNTVYLQMNSMKPEDTAVYYCAARSTVYEFFYYRGWWEYYYWGQGTQVTVSS,low polyreactivity
